# Assay results taken from paper PMC11059001 (2024).
# Target: complement C1q (human, UniProt P02745;P02746;P02747)
# Assay: MST
# Sequence of complement C1q (P02745 23-245, chain 1 of 3): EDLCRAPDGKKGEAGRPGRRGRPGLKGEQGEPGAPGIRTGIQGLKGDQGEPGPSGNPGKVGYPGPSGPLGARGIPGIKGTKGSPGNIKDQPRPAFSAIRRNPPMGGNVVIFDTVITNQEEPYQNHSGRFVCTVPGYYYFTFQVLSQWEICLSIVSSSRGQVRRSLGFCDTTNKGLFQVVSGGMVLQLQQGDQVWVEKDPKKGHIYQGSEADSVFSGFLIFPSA
# Sequence of complement C1q (P02746 28-253, chain 2 of 3): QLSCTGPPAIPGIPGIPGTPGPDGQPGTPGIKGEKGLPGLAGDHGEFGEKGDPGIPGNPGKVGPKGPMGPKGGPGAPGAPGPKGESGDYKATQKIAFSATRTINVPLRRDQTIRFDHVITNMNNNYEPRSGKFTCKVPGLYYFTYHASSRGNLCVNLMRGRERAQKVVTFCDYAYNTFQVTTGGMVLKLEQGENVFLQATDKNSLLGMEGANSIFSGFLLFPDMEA
# Sequence of complement C1q (P02747 29-245, chain 3 of 3): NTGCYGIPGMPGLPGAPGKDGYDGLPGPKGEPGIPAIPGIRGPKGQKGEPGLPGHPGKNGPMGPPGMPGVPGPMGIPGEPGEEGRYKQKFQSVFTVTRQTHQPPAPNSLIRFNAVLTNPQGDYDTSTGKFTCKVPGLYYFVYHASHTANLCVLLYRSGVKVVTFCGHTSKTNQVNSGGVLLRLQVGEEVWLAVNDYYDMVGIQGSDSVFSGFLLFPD
binder,measurement,value
"TsCRT^Δ mutant Y132A/N158A (domain or fragment, fluorescent label RED-NHS (MO-L011 Monolith Protein Labelling Kit) in the MST assays; chain labelled not stated | fluorescent label RED-NHS (MO-L011 Monolith Protein Labelling Kit) in the MST assays; chain labelled not stated | fluorescent label RED-NHS (MO-L011 Monolith Protein Labelling Kit) in the MST assays; chain labelled not stated) EPTIYLKETFDDGDAWKERWVQSKHKDDYGEWQLSHGKLFADENDMGLKTMQDARFYSLSRKFDKVVDNKDKPLVIVYTVKHEQDIDCGGGYIKLMLENTDLEDFNSDTPARIMFGPDICGPEKRAVHSILWHDGKAYEKRKNAIAMADIFTHAYKLIIFPNNSYEIWVNNDKEAYGRLEDDWTMTEPGSGPVPELYRYKGLGAIGFELWQVKSGTIFDNILITDDPEYAKEFIDKQLEALRPIEKVESDK",Kd,8.89 µM
